Source: US20240400693A1

Assays:
Experiment in all cases: cell-based or functional assay
[1] = biological target: HLA-DQ2.5 on IHW09023 cells loaded with gamma 2 gliadin peptide (human; wheat)
[2] = biological target: HLA-DQ2.5 on IHW09023 cells loaded with gamma 3 gliadin peptide (human; wheat)
[3] = biological target: HLA-DQ2.5 on IHW09023 cells loaded with gamma 4a gliadin peptide (human; wheat)
[4] = biological target: HLA-DQ2.5 on IHW09023 cells loaded with omega1/2 gliadin peptide (human; wheat)
[5] = biological target: HLA-DQ2.5 on IHW09023 cells loaded with 33mer gliadin peptide (human; wheat)
[6] = biological target: HLA-DQ2.5 on IHW09023 cells loaded with gamma 4d gliadin peptide (human; wheat)
[7] = biological target: HLA-DQ2.5 on IHW09023 cells loaded with gamma 1 gliadin peptide (human; wheat)
[8] = biological target: HLA-DQ2.5 on IHW09023 cells loaded with BC hordein peptide (human; barley)

IC50 (ng/mL), γ2 gliadin TCR, 250 nM γ2 gliadin [1]: > 20000 ng/mL
IC50 (ng/mL), γ3 gliadin TCR, 100 µM γ3 gliadin [2]: 3100 ng/mL
IC50 (ng/mL), γ4a gliadin TCR, 25 µM γ4a gliadin [3]: > 20000 ng/mL
IC50 (ng/mL), ω1 gliadin TCR, 25 µM ω1/2 gliadin [4]: 3.12 ng/mL
IC50 (ng/mL), ω2 gliadin TCR, 250 nM ω1/2 gliadin [4]: > 500 ng/mL
IC50 (ng/mL), α1a gliadin TCR, 250 nM 33mer gliadin [5]: 10.6 ng/mL
IC50 (ng/mL), α1b gliadin TCR, 250 nM 33mer gliadin [5]: 46.4 ng/mL
IC50 (ng/mL), α2 gliadin TCR, 250 nM 33mer gliadin [5]: 1.75 ng/mL
IC50 (ng/mL), γ4d gliadin TCR, 100 µM γ4d gliadin [6]: > 20000 ng/mL
IC50 (ng/mL), γ1 gliadin TCR, 250 nM γ1 gliadin [7]: > 20000 ng/mL
IC50 (ng/mL), BC hordein TCR, 250 nM BC hordein [8]: > 20000 ng/mL
B1: DQN034425 (antibody, V domains shown)
VH: QVQLVESGGGVVQPGRSLRLSCAASGFTFSSSYWMCWVRQAPGQGLEWMGCVYGGSDTTYYASWTKGRFTISRDNSKNTLYLQMNSLRAEDTAVYYCARDPLNYYYYGELNLWGQGTLVTVSS
VL: DIQMTQSPSSLSASVGDRVTITCQATENIYSGLAWYQQKPGKAPKLLIYYVSTLASGIPARFSGSGSGTDFTLTISSLEPEDFAVYYCQTYHDISNVTFGQGTKVEIK
